Measurements: the RNAGym collection of RNA variant scans (doi:10.1093/molbev/msab373)

B1: Azoarcus group I ribozyme (parent)
chain: GUGCCUUGCGCCGGGAAACCACGCAAGGGAUGGUGUCAAAUUCGGCGAAACCUAAGCGCCCGCCCGGGCGUAUGGCAACGCCGAGCCAAGCUUCGGCGCCUGCGCCGAUGAAGGUGUAGAGACUAGACGGCACCCACCUAAGGCAAACGCUAUGGUGAAGGCAUAGUCCAGGGAGUGGCGAAAGUCACACAAACCGG

Variants of: B1
Assay: reverse-splicing fitness (ratio to wild type); higher = more active; in vitro selection; Mg2+ level not given
Method in brief: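 An in vitro group I ribozyme library with randomized positions was T7-transcribed and gel-purified. In triplicate, 10 pmol RNA in EPPS pH 7.5 was reacted with 50 pmoles of a 30-nt RNA substrate for 1 h at 37 °C across several added MgCl2 levels (1–48 mM), then stopped with EDTA. Products were reverse transcribed from a substrate-complementary primer, PCR-amplified and sequenced (HiSeq 4000). Fitness is a variant's read proportion after selection over that before, normalised to wild type.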

| Variant | reverse-splicing fitness |
| --- | --- |
| C82G A120U A145C C150G C169A U176A | 0.00219 |
| C82G A120U A145C C150G C169A U176G | 0.00165 |
| C82G A120U A145C C150G C169A U176C | 0.00176 |
| C82G A120U A145C C150U | 0.0385 |
| C82G A120U A145C C150G | 0.0203 |
| C82G A120U A145C C150A | 0.00856 |
| C82G A120U A145U C169A | 0.00221 |
| C82G A120U A145U C169U | 0.00672 |
| C82G A120U A145U C169G | 0.00637 |
| C82G A120G C150A C169A U176A | 0.0208 |
| C82G A120G C150A C169A U176C | 0.0244 |
| C82G A120G C150A C169A U176G | 0.00604 |
| C82G A120U A145U C150G C169U U176G | 0.00234 |
| C82G A120U A145U C150G C169U U176A | 0.003 |
| C82G A120U A145U C150G C169U U176C | 0.00223 |
| C82G A120G C169G U176C | 0.0324 |
| C82G A120G C169G U176A | 0.0234 |
| C82G A120G C169G U176G | 0.00375 |
| C82G A120U A145C C150A U176G | 0.00299 |
| C82G A120U A145C C150A U176C | 0.00532 |
| C82G A120U A145C C150A U176A | 0.00467 |

| Variant | reverse-splicing fitness |
| --- | --- |
| C82G A120U C150A C169G | 0.00295 |
| C82G A120U C150A C169A | 0.00401 |
| C82G A120U C150A C169U | 0.00426 |
| C82G A120U A145C C150A C169A | 0.00159 |
| C82G A120U A145C C150A C169G | 0.00199 |
| C82G A120U A145C C150A C169U | 0.00213 |
| C82G A120G C150A C169U U176C | 0.02 |
| C82G A120G C150A C169U U176G | 0.00754 |
| C82G A120G C150A C169U U176A | 0.0248 |
| C82G A120G A145U C169U U176A | 0.0203 |
| C82G A120G A145U C169U U176G | 0.00349 |
| C82G A120G A145U C169U U176C | 0.0176 |
| C82G A120G C150U U176G | 0.0083 |
| C82G A120G C150U U176A | 0.0117 |
| C82G A120G C150U U176C | 0.0192 |
| C82G A120U A145U C169U U176G | 0.00148 |
| C82G A120U A145U C169U U176C | 0.00402 |
| C82G A120U A145U C169U U176A | 0.00334 |
| C82G A120U C169A U176A | 0.00247 |
| C82G A120U C169A U176C | 0.00259 |
| C82G A120U C169A U176G | 0.000985 |

| Variant | reverse-splicing fitness |
| --- | --- |
| C82G A120U A145U U176A | 0.0782 |
| C82G A120U A145U U176C | 0.116 |
| C82G A120U A145U U176G | 0.02 |
| C82G A120U A145U C150A C169U U176C | 0.0022 |
| C82G A120U A145U C150A C169U U176A | 0.00242 |
| C82G A120U A145U C150A C169U U176G | 0.00185 |
| C82G A120U A145G C150U C169G | 0.00765 |
| C82G A120U A145G C150U C169U | 0.00803 |
| C82G A120U A145G C150U C169A | 0.00606 |
| C82G A120G C150G C169U U176A | 0.0113 |
| C82G A120G C150G C169U U176G | 0.00645 |
| C82G A120G C150G C169U U176C | 0.0158 |
| C82G A120U A145C C150G C169G | 0.00253 |
| C82G A120U A145C C150G C169U | 0.00302 |
| C82G A120U A145C C150G C169A | 0.00195 |
| C82G A120U A145C C150A C169A U176C | 0.00208 |
| C82G A120U A145C C150A C169A U176G | 0.00157 |
| C82G A120U A145C C150A C169A U176A | 0.0017 |
| C82G A120U A145C C169U U176G | 0.00148 |
| C82G A120U A145C C169U U176C | 0.00223 |
| C82G A120U A145C C169U U176A | 0.00266 |

| Variant | reverse-splicing fitness |
| --- | --- |
| C82G A120U A145G C150A U176A | 0.0118 |
| C82G A120U A145G C150A U176C | 0.014 |
| C82G A120U A145G C150A U176G | 0.00517 |
| C82G A120G A145U C150U U176A | 0.0121 |
| C82G A120G A145U C150U U176G | 0.00475 |
| C82G A120G A145U C150U U176C | 0.0189 |
| C82G A120U C150U U176A | 0.0366 |
| C82G A120U C150U U176G | 0.0119 |
| C82G A120U C150U U176C | 0.058 |
| C82G A120G C169U U176G | 0.00492 |
| C82G A120G C169U U176A | 0.0236 |
| C82G A120G C169U U176C | 0.024 |
| C82G A120U A145U C150U C169U U176G | 0.00159 |
| C82G A120U A145U C150U C169U U176A | 0.00283 |
| C82G A120U A145U C150U C169U U176C | 0.00342 |
| C82G A120U A145U C150U C169G U176C | 0.00331 |
| C82G A120U A145U C150U C169G U176G | 0.00167 |
| C82G A120U A145U C150U C169G U176A | 0.00248 |
| C82G A120U A145U C169A U176C | 0.00205 |
| C82G A120U A145U C169A U176A | 0.00245 |
